# From article PMC7199855, “GRAF2, WDR44, and MICAL1 mediate Rab8/10/11–dependent export of E-cadherin, MMP14, and CFTR ΔF508” (The Journal of Cell Biology, 2020)
# B1: GFP-VAPA [human] / myc-WDR44 [human] (parent complex)
# chain 1: MASASGAMAKHEQILVLDPPTDLKFKGPFTDVVTTNLKLRNPSDRKVCFKVKTTAPRRYCVRPNSGIIDPGSTVTVSVMLQPFDYDPNEKSKHKFMVQTIFAPPNTSDMEAVWKEAKPDELMDSKLRCVFEMPNENDKLNDMEPSKAVPLNASKQDGPMPKPHSVSLNDTETRKLMEECKRLQGEMMKLSEENRHLRDEGLRLRKVAHSDKPGSTSTASFRDNVTSPLPSLLVVIAAIFIGFFLGKFIL
# chain 2: MASESDTEEFYDAPEDVHLGGGYPVGSPGKVGLSTFKETENTAYKVGNESPVQELKQDVSKKIIESIIEESQKVLQLEDDSLDSKGKELSDQATASPIVARTDLSNIPGLLAIDQVLPEESQKAESQNTFEETELELKKCFPSDETCEKPVDETTKLTQTSSTEQLNVLETETEVLNKEAVEVKGGGDVLEPVSSDSLSTKDFAAVEEVAPAKPPRHLTPEPDIVASTKKPVPARPPPPTNFPPPRPPPPSRPAPPPRKRKSELEFETLKTPDIDVPKENITSDSLLTASMASESTVKDSQPSLDLASATSGDKIVTAQENGKAPDGQTVAGEVMGPQRPRSNSGRELTDEEILASVMIKNLDTGEEIPLSLAEEKLPTGINPLTLHIMRRTKEYVSNDAAQSDDEEKLQSQPTDTDGGRLKQKTTQLKKFLGKSVKRAKHLAEEYGERAINKVKSVRDEVFHTDQDDPSSSDDEGMPYTRPVKFKAAHGFKGPYDFDQIKVVQDLSGEHMGAVWTMKFSHCGRLLASAGQDNVVRIWALKNAFDYFNNMRMKYNTEGRVSPSPSQESLSSSKSDTDTGVCSGTDEDPDDKNAPFRQRPFCKYKGHTADLLDLSWSKNYFLLSSSMDKTVRLWHISRRECLCCFQHIDFVTAIAFHPRDDRYFLSGSLDGKLRLWNIPDKKVALWNEVDGQTKLITAANFCQNGKYAVIGTYDGRCIFYDTEHLKYHTQIHVRSTRGRNKVGRKITGIEPLPGENKILVTSNDSRIRLYDLRDLSLSMKYKGYVNSSSQIKASFSHDFTYLVSGSEDKYVYIWSTYHDLSKFTSVRRDRNDFWEGIKAHNAVVTSAIFAPNPSLMLSLDVQSEKSEGNEKSEDAEVLDATPSGIMKTDNTEVLLSADFTGAIKVFVNKRKNVS
# B2: myc-MICAL1 [human] / GRAF1b-GFP [human] (parent complex)
# chain 1: MASPTSTNPAHAHFESFLQAQLCQDVLSSFQELCGALGLEPGGGLPQYHKIKDQLNYWSAKSLWTKLDKRAGQPVYQQGRACTSTKCLVVGAGPCGLRVAVELALLGARVVLVEKRTKFSRHNVLHLWPFTIHDLRALGAKKFYGRFCTGTLDHISIRQLQLLLLKVALLLGVEIHWGVTFTGLQPPPRKGSGWRAQLQPNPPAQLANYEFDVLISAAGGKFVPEGFKVREMRGKLAIGITANFVNGRTVEETQVPEISGVARIYNQSFFQSLLKATGIDLENIVYYKDDTHYFVMTAKKQCLLRLGVLRQDWPDTNRLLGSANVVPEALQRFTRAAADFATHGKLGKLEFAQDAHGQPDVSAFDFTSMMRAESSARVQEKHGARLLLGLVGDCLVEPFWPLGTGVARGFLAAFDAAWMVKRWAEGAESLEVLAERESLYQLLSQTSPENMHRNVAQYGLDPATRYPNLNLRAVTPNQVRDLYDVLAKEPVQRNNDKTDTGMPATGSAGTQEELLRWCQEQTAGYPGVHVSDLSSSWADGLALCALVYRLQPGLLEPSELQGLGALEATAWALKVAENELGITPVVSAQAVVAGSDPLGLIAYLSHFHSAFKSMAHSPGPVSQASPGTSSAVLFLSKLQRTLQRSRAKENAEDAGGKKLRLEMEAETPSTEVPPDPEPGVPLTPPSQHQEAGAGDLCALCGEHLYVLERLCVNGHFFHRSCFRCHTCEATLWPGGYEQHPGDGHFYCLQHLPQTDHKAEGSDRGPESPELPTPSENSMPPGLSTPTASQEGAGPVPDPSQPTRRQIRLSSPERQRLSSLNLTPDPEMEPPPKPPRSCSALARHALESSFVGWGLPVQSPQALVAMEKEEKESPFSSEEEEEDVPLDSDVEQALQTFAKTSGTMNNYPTWRRTLLRRAKEEEMKRFCKAQTIQRRLNEIEAALRELEAEGVKLELALRRQSSSPEQQKKLWVGQLLQLVDKKNSLVAEEAELMITVQELNLEEKQWQLDQELRGYMNREENLKTAADRQAEDQVLRKLVDLVNQRDALIRFQEERRLSELALGTGAQG
# chain 2: MGLPALEFSDCCLDSPHFRETLKSHEAELDKTNKFIKELIKDGKSLISALKNLSSAKRKFADSLNEFKFQCIGDAETDDEMCIARSLQEFATVLRNLEDERIRMIENASEVLITPLEKFRKEQIGAAKEAKKKYDKETEKYCGILEKHLNLSSKKKESQLQEADSQVDLVRQHFYEVSLEYVFKVQEVQERKMFEFVEPLLAFLQGLFTFYHHGYELAKDFGDFKTQLTISIQNTRNRFEGTRSEVESLMKKMKENPLEHKTISPYTMEGYLYVQEKRHFGTSWVKHYCTYQRDSKQITMVPFDQKSGGKGGEDESVILKSCTRRKTDSIEKRFCFDVEAVDRPGVITMQALSEEDRRLWMEAMDGREPVYNSNKDSQSEGTAQLDSIGFSIIRKCIHAVETRGINEQGLYRIVGVNSRVQKLLSVLMDPKTASETETDICAEWEIKTITSALKTYLRMLPGPLMMYQFQRSFIKAAKLENQESRVSEIHSLVHRLPEKNRQMLQLLMNHLANVANNHKQNLMTVANLGVVFGPTLLRPQEETVAAIMDIKFQNIVIEILIENHEKIFNTVPDMPLTNAQLHLSRKKSSDSKPPSCSERPLTLFHTVQSTEKQEQRNSIINSSLESVSSNPNSILNSSSSLQPNMNSSDPDLAVVKPTRPNSLPPNPSPTSPLSPSWPMFSAPSSPMPTSSTSSDSSPVSTPFRKAKALYACKAEHDSELSFTAGTVFDNVHPSQEPGWLEGTLNGKTGLIPENYVEFL
# B3: myc-MICAL1 [human] / GRAF2-GFP [human] (parent complex)
# chain 1: B2 chain 1
# chain 2: MGLQPLEFSDCYLDSPWFRERIRAHEAELERTNKFIKELIKDGKNLIAATKSLSVAQRKFAHSLRDFKFEFIGDAVTDDERCIDASLREFSNFLKNLEEQREIMALSVTETLIKPLEKFRKEQLGAVKEEKKKFDKETEKNYSLIDKHLNLSAKKKDSHLQEADIQVEQNRQHFYELSLEYVCKLQEIQERKKFEFVEPMLSFFQGMFTFYHQGHELAKDFNHYKMELQINIQNTRNRFEGTRSEVEELMNKIRQNPKDHKRASQFTAEGYLYVQEKRPAPFGSSWVKHYCMYRKAAKKFNMIPFEHRSGGKLGDGEVFFLKECTKRHTDSIDRRFCFDIEAADRPGVSLTMQAFSEEERKQWLEALGGKEALSHSFNTAIIPRPEGNAQLDKMGFTIIRKCISAVETRGINDQGLYRVVGVSSKVQRLLSMLMDVKTCNEVDLENSADWEVKTITSALKQYLRSLPEPLMTYELHGDFIVPAKSGSPESRVNAIHFLVHKLPEKNKEMLDILVKHLTNVSNHSKQNLMTVANLGVVFGPTLMRPQEETVAALMDLKFQNIVVEILIENHEKIFRTPPDTTFPEPTCLSASPPNAPPRQSKRQGQRTKRPVAVYNLCLELEDGDNPYPSKEDTPTSSLDSLSSPSPVTTAVPGPPGPDKNHLLADGGSFGDWASTIPGQTRSSMVQWLNPQSPTTTSSNSAVTPLSPGSSPFPFSPPATVADKPPESIRSRKARAVYPCEAEHSSELSFEIGAIFEDVQTSREPGWLEGTLNGKRGLIPQNYVKLL
# Variants of: B1
# Experiment: co-immunoprecipitation (IP with α-GFP, quantified western blot); transfected 293T cells; n = 3 or 4; means ± SEM; parent: 1; read off a plot
row,Variant,ratio to parent
1,"chain 1 MASASGAMAKHEQILVLDPPTDLKFKGPFTDVVTTNLKLRNPSDRKVCFKVKTTAPRRYCVRPNSGIIDPGSTVTVSVMLQPFDYDPNEKSKHDFDVQTIFAPPNTSDMEAVWKEAKPDELMDSKLRCVFEMPNENDKLNDMEPSKAVPLNASKQDGPMPKPHSVSLNDTETRKLMEECKRLQGEMMKLSEENRHLRDEGLRLRKVAHSDKPGSTSTASFRDNVTSPLPSLLVVIAAIFIGFFLGKFIL [chain 1 K94D, chain 1 M96D]",~0.4

# Variants of: B2
# Experiment: co-immunoprecipitation (IP with α-myc-coated beads, quantified western blot); transfected 293T cells; n = 3–5; means ± SEM; parent: 1; read off a plot
row,Variant,ratio to parent
1,chain 1 K832A,~0.05

# Variants of: B3
# Experiment: co-immunoprecipitation (IP with α-myc-coated beads, quantified western blot); transfected 293T cells; n = 3 or 4; means ± SEM; parent: 1; read off a plot
row,Variant,ratio to parent
1,chain 1 K832A,~0.03
